Data as given in paper PMC6695518.

Key:
[1] = biological target: recombinant His-tagged P34 (Trypanosoma brucei); assay: co-IP; recombinant immune capture as above, with in vitro-transcribed 5S rRNA added before the proteins at an equal molar ratio; Western blot
[2] = biological target: recombinant His-tagged L5 (Trypanosoma brucei); assay: as above
[3] = biological target: ribosomal protein L5, endogenous (Trypanosoma brucei brucei strain 427 (endogenous in procyclic cells)); assay: co-IP; in vivo immune capture as above, with RNase A (50 ug) added to the whole-cell extract; Western blot for TbMex67; input set at 1.0
P34/P37, endogenous [4] = assay: as above
[5] = biological target: ribosomal protein L5, endogenous (Trypanosoma brucei brucei strain 427 (endogenous in procyclic cells)); assay: co-IP; in vivo immune capture: 100 ug procyclic whole-cell extract with anti-P34/P37 or anti-L5 cross-linked protein A Dynabeads, PBS with 10 mg/ml BSA, 1 h at 4°C, without RNase A; Western blot for TbMex67; input set at 1.0
P34/P37, endogenous [6] = assay: as above
[7] = system: TbMex67 (Trypanosoma brucei); assay: filter binding; details: TbMex67 alone; 10 mM Tris-HCl pH 7.4, 100 mM NaCl, 1 mM EDTA, 100 ug/ml BSA, 0.05 nM RNA, 0-200 nM protein, 30 min, room temperature; RNA preheated 55 C 10 min then ice
[8] = system: TbMex67;TbMtr2 (Trypanosoma brucei;Trypanosoma brucei); assay: filter binding; details: TbMex67 and TbMtr2 preincubated together; Kd in total TbMex67; 10 mM Tris-HCl pH 7.4, 100 mM NaCl, 1 mM EDTA, 100 ug/ml BSA, 0.05 nM RNA, 0-200 nM protein, 30 min, room temperature; RNA preheated 55 C 10 min then ice

Substance: recombinant His-tagged TbMex67 (natural protein)
- ratio of TbMex67 in the pellet with 5S rRNA to without [1]: 0.94
- ratio of TbMex67 in the pellet with 5S rRNA to without [2]: 0.94

Substance: Trypanosoma brucei Mex67 (TbMex67), endogenous (natural protein)
- amount of TbMex67 in the pellet, with RNase A (relative to input set at 1.0) [3]: 0.8
- relative amount of TbMex67 in the pellet, with RNase A (relative to input set at 1.0) (P34/P37, endogenous [4]): 0.53
- fraction of the total amount of TbMex67 associated with L5 (relative to input set at 1.0) [5]: 0.43
- relative total amount of TbMex67 in the pellet fraction (relative to input set at 1.0) (P34/P37, endogenous [6]): 0.35

Substance: 5S rRNA
- Kd [7]: 41 nM
- Kd [8]: 10 nM
